Assay results from patent US20090298167A1 (Pfizer, published 2009).

Experiments:
[1] = biological target: T1, human IL-21R expressed on cells (human, UniProt Q9HBE5 20-538); assay: cell-based or functional assay
[2] = biological target: murine IL-21R expressed on cells (murine, UniProt Q9JHX3 20-529); assay: cell-based or functional assay
[3] = biological target: T2, rat IL-21R expressed on cells (rat); assay: cell ELISA on transfected CHO cells, 13 nM IgG
T2 construct: whole, on cells; Transiently transfected CHO-PA-Dukx cells
Method: (§1) A subset of binding proteins was tested for binding to rat, cynomolgus monkey, human IL-21R, or human IL-2R-γ common subunit expressed transiently on the surfaces of CHO-PA-Dukx cells. Cells were transfected 48 hr prior to the assay. On the day of the assay, cells were washed gently 5× in PBS containing 0.9 mM CaCl₂ and 0.45 mM MgCl₂ (PBS/CaMg) on an automated plate washer (Titertek, Huntsville, Ala.), and blocked for 1 hr at RT in PBS/CaMg/5% nonfat dry milk. Conditioned media from transiently expressed anti-IL-21R IgGs were serially diluted in blocking buffer and added to the cells in the blocked plates for 1 hr at RT. Cells were washed 5× with PBS/CaMg and then incubated with horseradish peroxidase-conjugated anti-human IgG for 1 hr at RT. Cells were then washed 10× in PBS/CaMg and all of the wash buffer was removed. Cells were incubated with 100 μl TMB until the color reaction reached saturation, stopped with 100 μl of 0.18 M H₂SO₄, and read at A450 on a Perkin Elmer ENVISION™ plate reader.

[4] = biological target: T1, human IL-21R expressed on cells; assay: cell ELISA on transfected CHO cells, 13 nM IgG
Method: as §1

[5] = biological target: T3, human gamma common chain expressed on CHO cells (human, UniProt P31785 23-369); assay: cell ELISA on transfected CHO cells, 13 nM IgG
T3 construct: whole, on cells; Control protein; also called human IL-2R-γ common subunit; human gamma (γ) common chain
T3 sequence (looked up): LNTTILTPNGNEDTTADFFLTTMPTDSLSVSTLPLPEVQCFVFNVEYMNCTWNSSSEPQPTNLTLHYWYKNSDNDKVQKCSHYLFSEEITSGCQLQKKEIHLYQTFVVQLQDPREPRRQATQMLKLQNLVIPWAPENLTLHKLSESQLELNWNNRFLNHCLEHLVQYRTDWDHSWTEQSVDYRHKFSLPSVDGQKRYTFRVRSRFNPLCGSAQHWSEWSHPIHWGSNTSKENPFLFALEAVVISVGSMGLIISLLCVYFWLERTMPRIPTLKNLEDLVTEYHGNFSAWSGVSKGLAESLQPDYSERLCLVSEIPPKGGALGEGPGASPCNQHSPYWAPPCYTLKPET
Method: as §1

[6] = biological target: T4, cynomolgus monkey IL-21R expressed on CHO cells (cynomolgus monkey); assay: cell ELISA on transfected CHO cells, 13 nM IgG
T4 construct: whole, on cells
Method: as §1

Chain of murine IL-21R expressed on cells (Q9JHX3 20-529 limits assumed): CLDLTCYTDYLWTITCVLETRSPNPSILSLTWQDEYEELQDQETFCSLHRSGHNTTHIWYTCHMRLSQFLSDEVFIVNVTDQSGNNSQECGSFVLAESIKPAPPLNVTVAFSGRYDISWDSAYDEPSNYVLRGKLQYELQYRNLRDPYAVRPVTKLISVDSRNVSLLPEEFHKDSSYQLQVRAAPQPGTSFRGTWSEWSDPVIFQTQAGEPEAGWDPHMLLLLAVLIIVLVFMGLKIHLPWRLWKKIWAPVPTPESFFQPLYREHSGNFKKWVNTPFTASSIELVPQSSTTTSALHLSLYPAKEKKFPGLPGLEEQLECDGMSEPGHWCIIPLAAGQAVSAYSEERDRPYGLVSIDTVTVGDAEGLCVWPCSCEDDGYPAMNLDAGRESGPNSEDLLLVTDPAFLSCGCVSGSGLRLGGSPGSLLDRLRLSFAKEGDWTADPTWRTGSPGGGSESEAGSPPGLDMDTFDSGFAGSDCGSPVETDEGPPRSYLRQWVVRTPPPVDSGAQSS
T1 sequence (Q9HBE5 20-538 limits assumed): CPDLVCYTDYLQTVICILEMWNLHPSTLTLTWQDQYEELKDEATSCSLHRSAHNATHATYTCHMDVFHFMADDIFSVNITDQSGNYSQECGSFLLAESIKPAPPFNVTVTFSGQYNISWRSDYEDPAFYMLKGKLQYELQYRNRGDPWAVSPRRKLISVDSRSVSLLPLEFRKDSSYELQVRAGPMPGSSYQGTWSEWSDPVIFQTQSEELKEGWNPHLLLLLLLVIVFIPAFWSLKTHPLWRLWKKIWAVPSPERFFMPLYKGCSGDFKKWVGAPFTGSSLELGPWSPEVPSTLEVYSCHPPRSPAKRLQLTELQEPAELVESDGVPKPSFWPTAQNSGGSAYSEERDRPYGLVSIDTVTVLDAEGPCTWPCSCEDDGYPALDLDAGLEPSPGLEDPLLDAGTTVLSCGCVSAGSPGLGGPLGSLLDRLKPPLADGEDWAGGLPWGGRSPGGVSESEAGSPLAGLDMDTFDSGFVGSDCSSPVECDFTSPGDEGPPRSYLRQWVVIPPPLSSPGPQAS

Row | Binder | Human IL-21R-BaF3 Proliferation IC50 [1] [nM] | Human IL-21R-TF1 Proliferation IC50 [1] [nM] | Murine IL-21R-BaF3 Proliferation IC50 [2] [nM] | A450 at 13 nM Ab in cell ELISA [3] [A450] | A450 at 13 nM Ab in cell ELISA [4] [A450] | A450 at 13 nM Ab in cell ELISA [5] [A450] | A450 at 13 nM Ab in cell ELISA [6] [A450]
1 | AbA (antibody, human IgG1, V domains shown, Full-length human IgG1 / human lambda, transient, conditioned medium; Framework limits derived; also called VHP/VL2) VH: QVQLQESGPGLVKPSETLSLTCAVSGYSISSGYYWGWIRQPPGKGLEWIGSISHTGNTYYNPPLKSRVTISVDTSKNQFSLKLSSVTAADTAVYYCARGGGISRPEYWGQGTLVTVSS VL: SSELTQDPAVSVALGQTVRITCQGDSLRTYYASWYQQKPGQAPVLVIYGKHKRPSGIPDRFSGSSSGNTASLTITGAQAEDEADYYCVARSVVGNPHVLFGGGTQLTVL | 0.97 | 3.8 | 0.08 | 1.12 | 1.2 | 0.111 | 1.35
2 | AbF (antibody, human IgG1, V domains shown, Full-length human IgG1 / human lambda, transient, conditioned medium; Framework limits derived; also called VHP/VL17) VH: QVQLQESGPGLVKPSETLSLTCAVSGYSISSGYYWGWIRQPPGKGLEWIGSISHTGNTYYNPPLKSRVTISVDTSKNQFSLKLSSVTAADTAVYYCARGGGISRPEYWGQGTLVTVSS VL: SSELTQDPAVSVALGQTVRITCQGDSLRTYYASWYQQKPGQAPVLVIYGKHKRPSGIPDRFSGSSSGNTASLTITGAQAEDEADYYCSTRSRKGNPHVLFGGGTQLTVL | 0.54 | 2.41 | 0.304 | 1 | 1.35 | – | 1.46
3 | AbB (antibody, human IgG1, V domains shown, Full-length human IgG1 / human lambda, transient, conditioned medium; Framework limits derived; also called VHP/VL3) VH: QVQLQESGPGLVKPSETLSLTCAVSGYSISSGYYWGWIRQPPGKGLEWIGSISHTGNTYYNPPLKSRVTISVDTSKNQFSLKLSSVTAADTAVYYCARGGGISRPEYWGQGTLVTVSS VL: SSELTQDPAVSVALGQTVRITCQGDSLRTYYASWYQQKPGQAPVLVIYGKHKRPSGIPDRFSGSSSGNTASLTITGAQAEDEADYYCVSRAVVGNPHVLFGGGTQLTVL | 1.14 | 3.34 | 0.421 | 1.09 | 1.15 | 0.107 | 1.33
4 | AbJ (antibody, human IgG1, V domains shown, Full-length human IgG1 / human lambda, transient, conditioned medium; Framework limits derived; also called VH3/VLP) VH: QVQLQESGPGLVKPSETLSLTCAVSGYSISSGYYWGWIRQPPGKGLEWIGSISHTGNTYYNPPLKSRVTISVDTSKNQFSLKLSSVTAADTAVYYCARFMGFGRPEYWGQGTLVTVSS VL: SSELTQDPAVSVALGQTVRITCQGDSLRTYYASWYQQKPGQAPVLVIYGKHKRPSGIPDRFSGSSSGNTASLTITGAQAEDEADYYCNSRDSSGNPHVLFGGGTQLTVL | 0.65 | 4.6 | 0.4 | 1.26 | 1.22 | 0.126 | 1.27
5 | AbH (antibody, human IgG1, V domains shown, Full-length human IgG1 / human lambda, transient, conditioned medium; Framework limits derived; also called VHP/VL19) VH: QVQLQESGPGLVKPSETLSLTCAVSGYSISSGYYWGWIRQPPGKGLEWIGSISHTGNTYYNPPLKSRVTISVDTSKNQFSLKLSSVTAADTAVYYCARGGGISRPEYWGQGTLVTVSS VL: SSELTQDPAVSVALGQTVRITCQGDSLRTYYASWYQQKPGQAPVLVIYGKHKRPSGIPDRFSGSSSGNTASLTITGAQAEDEADYYCVARAVRGNPHVLFGGGTQLTVL | 0.94 | 3.64 | 0.327 | 1.1 | 1.35 | – | 1.32
6 | AbC (antibody, human IgG1, V domains shown, Full-length human IgG1 / human lambda, transient, conditioned medium; Framework limits derived; also called VHP/VL11) VH: QVQLQESGPGLVKPSETLSLTCAVSGYSISSGYYWGWIRQPPGKGLEWIGSISHTGNTYYNPPLKSRVTISVDTSKNQFSLKLSSVTAADTAVYYCARGGGISRPEYWGQGTLVTVSS VL: SSELTQDPAVSVALGQTVRITCQGDSLRTYYASWYQQKPGQAPVLVIYGKHKRPSGIPDRFSGSSSGNTASLTITGAQAEDEADYYCSSRSRHGNPHVLFGGGTQLTVL | 0.82 | 3.36 | 0.03 | 0.999 | 1.22 | 0.137 | 1.28
7 | AbK (antibody, human IgG1, V domains shown, Full-length human IgG1 / human lambda, transient, conditioned medium; Framework limits derived; also called VH3/VL3) VH: QVQLQESGPGLVKPSETLSLTCAVSGYSISSGYYWGWIRQPPGKGLEWIGSISHTGNTYYNPPLKSRVTISVDTSKNQFSLKLSSVTAADTAVYYCARFMGFGRPEYWGQGTLVTVSS VL: SSELTQDPAVSVALGQTVRITCQGDSLRTYYASWYQQKPGQAPVLVIYGKHKRPSGIPDRFSGSSSGNTASLTITGAQAEDEADYYCVSRAVVGNPHVLFGGGTQLTVL | 0.98 | 4 | 0.079 | 1.18 | 1.36 | 0.108 | 1.34
8 | AbE (antibody, human IgG1, V domains shown, Full-length human IgG1 / human lambda, transient, conditioned medium; Framework limits derived; also called VHP/VL14) VH: QVQLQESGPGLVKPSETLSLTCAVSGYSISSGYYWGWIRQPPGKGLEWIGSISHTGNTYYNPPLKSRVTISVDTSKNQFSLKLSSVTAADTAVYYCARGGGISRPEYWGQGTLVTVSS VL: SSELTQDPAVSVALGQTVRITCQGDSLRTYYASWYQQKPGQAPVLVIYGKHKRPSGIPDRFSGSSSGNTASLTITGAQAEDEADYYCMARSRKGNPHVLFGGGTQLTVL | 0.56 | 2.28 | 0.04 | 1.11 | 1.26 | – | 1.42
9 | AbM (antibody, human IgG1, V domains shown, Full-length human IgG1 / human lambda, transient, conditioned medium; Framework limits derived; also called VH6/VL13) VH: QVQLQESGPGLVKPSETLSLTCAVSGYSISSGYYWGWIRQPPGKGLEWIGSISHTGNTYYNPPLKSRVTISVDTSKNQFSLKLSSVTAADTAVYYCARFFGFGRPEYWGQGTLVTVSS VL: SSELTQDPAVSVALGQTVRITCQGDSLRTYYASWYQQKPGQAPVLVIYGKHKRPSGIPDRFSGSSSGNTASLTITGAQAEDEADYYCVTRNRYGNPHVLFGGGTQLTVL | 1.08 | 4.22 | 0.125 | 0.78 | 1.2 | – | 1.45
10 | AbI (antibody, human IgG1, V domains shown, Full-length human IgG1 / human lambda, transient, conditioned medium; Framework limits derived; also called VHP/VL24) VH: QVQLQESGPGLVKPSETLSLTCAVSGYSISSGYYWGWIRQPPGKGLEWIGSISHTGNTYYNPPLKSRVTISVDTSKNQFSLKLSSVTAADTAVYYCARGGGISRPEYWGQGTLVTVSS VL: SSELTQDPAVSVALGQTVRITCQGDSLRTYYASWYQQKPGQAPVLVIYGKHKRPSGIPDRFSGSSSGNTASLTITGAQAEDEADYYCIARSNKGNPHVLFGGGTQLTVL | 1 | 3.8 | 0.224 | 1.09 | 1.24 | 0.107 | 1.21
